This note sets out measurements from publication PMC10981947.

As a reminder, the stoichiometry N is a count of units in the complex or per binding partner.

Assay [1] addresses LeuT-AA, dimer interface mutant of LeuT (F488A and Y489A), C-terminally GFP-tagged.
Assay [2] deals with sugar transporter SemiSWEET, C-terminally GFP-tagged.
Assay [3] addresses TrkA^TM, truncation mutant of TrkA containing only the transmembrane domain, C-terminally GFP-tagged.
For assay [4], the target named is TrkA^ECD+TM, truncation mutant of TrkA containing the extracellular and transmembrane domains, C-terminally GFP-tagged.
The target is the same in assay [5]. This is another data set of the same source.
Assay [6] concerns the target T1, potassium ion channel KcsA, C-terminally GFP-tagged, P0A334.
T1 chain: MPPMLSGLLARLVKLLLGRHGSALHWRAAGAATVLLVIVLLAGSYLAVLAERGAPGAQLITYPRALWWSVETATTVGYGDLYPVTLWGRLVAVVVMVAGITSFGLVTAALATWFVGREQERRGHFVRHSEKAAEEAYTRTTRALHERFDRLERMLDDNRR
The note with it: remark: other sources report otherwise.

As for “LeuT-AA, dimer interface mutant of LeuT (F488A and Y489A), C-terminally GFP-tagged (natural protein)”, in assay [1], the percent dimer was 36% and the percent monomer amounted to 53%.

For the molecule “sugar transporter SemiSWEET, C-terminally GFP-tagged (natural protein)”, the stoichiometry N in assay [2] stood at 2.

Turning to “TrkA^TM, truncation mutant of TrkA containing only the transmembrane domain, C-terminally GFP-tagged (domain or fragment)”, in assay [3], the percent dimer (no NGF) amounted to 35%, the percent higher-order oligomers (no NGF) is 2% and the percent monomer (no NGF) stood at 60%.

In assay [4], “TrkA^ECD+TM, truncation mutant of TrkA containing the extracellular and transmembrane domains, C-terminally GFP-tagged (domain or fragment)” returned a percent dimer (NGF-treated, fraction 1) of 47%; a percent higher-order oligomers (NGF-treated, fraction 1) of 30%; a percent monomer (NGF-treated, fraction 1) of 22%. In assay [5], the percent dimer (no NGF) stood at 40%, the percent higher-order oligomers (no NGF) was found to be 5% and the percent monomer (no NGF) worked out at 55%.

B1: potassium ion channel KcsA, C-terminally GFP-tagged, P0A334 1-160 (natural protein)
chain: MPPMLSGLLARLVKLLLGRHGSALHWRAAGAATVLLVIVLLAGSYLAVLAERGAPGAQLITYPRALWWSVETATTVGYGDLYPVTLWGRLVAVVVMVAGITSFGLVTAALATWFVGREQERRGHFVRHSEKAAEEAYTRTTRALHERFDRLERMLDDNRR
On to B1, for which, in assay [6], the stoichiometry N turned out to be 4.
